Results as given in paper PMC6640040 (Nature, 2016).

T1: MecA (B. subtilis, UniProt P37958 1-218)
T1 sequence (looked up): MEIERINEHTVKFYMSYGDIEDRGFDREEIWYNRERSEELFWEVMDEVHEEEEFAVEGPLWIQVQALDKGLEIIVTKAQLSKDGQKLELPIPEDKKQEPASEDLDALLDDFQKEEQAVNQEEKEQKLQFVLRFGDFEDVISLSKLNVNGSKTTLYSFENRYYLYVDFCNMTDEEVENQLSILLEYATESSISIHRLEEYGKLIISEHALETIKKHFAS


Tests used:
Assay in all cases: pull-down
MecA = molecular target: T1, MecA
wild-type ClpP(6His) = wild-type ClpP(6His) (B. subtilis, UniProt P80244 1-197)
ClpP(6His)^TRAP = ClpP(6His)^TRAP (B. subtilis, UniProt P80244 1-197, Ser98Ala)

Binder | binding result (MecA) | binding result (wild-type ClpP(6His)) | binding result (ClpP(6His)^TRAP)
ClpC^NTD(1–150) (domain or fragment, B. subtilis, UniProt P37571 1-150, looked up) MMFGRFTERAQKVLALAQEEALRLGHNNIGTEHILLGLVREGEGIAAKALQALGLGSEKIQKEVESLIGRGQEMSQTIHYTPRAKKVIELSMDEARKLGHSYVGTEHILLGLIREGEGVAARVLNNLGVSLNKARQQVLQLLGSNETGSS | binds |  | 
ClpC NTD^EA mutant (domain or fragment, B. subtilis, UniProt P37571 1-150, looked up) MMFGRFTERAQKVLALAQEEALRLGHNNIGTAHILLGLVREGEGIAAKALQALGLGSEKIQKEVESLIGRGQEMSQTIHYTPRAKKVIELSMDEARKLGHSYVGTAHILLGLIREGEGVAARVLNNLGVSLNKARQQVLQLLGSNETGSS | binds |  | 
endogenous ClpP (enzyme) not shown |  | binds | binds
